Data reported in paper PMC7540344.

Legend:
YC‐StCEN = assay: bimolecular fluorescence complementation (BiFC); settings: random fields from maximum intensity projections (n ≥ 10); opposing half-leaves, same imaging conditions; read off a plot
YC‐St14‐3‐3a = assay: bimolecular fluorescence complementation (BiFC); settings: random fields from maximum intensity projections (n ≥ 10); opposing half-leaves, same imaging conditions; read off a plot
YC‐St14‐3‐3f = assay: bimolecular fluorescence complementation (BiFC); settings: random fields from maximum intensity projections (n ≥ 10); opposing half-leaves, same imaging conditions; read off a plot
YC‐StFDL1a = YC‐StFDL1a (UniProt A0A1E1F9A2); assay: bimolecular fluorescence complementation (BiFC); settings: random fields from maximum intensity projections (n ≥ 10); opposing half-leaves, same imaging conditions; read off a plot
YC‐StFD = YC‐StFD (UniProt A0A1E1F9A3); assay: bimolecular fluorescence complementation (BiFC); settings: random fields from maximum intensity projections (n ≥ 10); opposing half-leaves, same imaging conditions; read off a plot
[1] = biological target: YC‐StFDL1a (Solanum tuberosum cv. Desiree)

Sequence of UniProt A0A1E1F9A2 (A0A1E1F9A2 entry or part of it): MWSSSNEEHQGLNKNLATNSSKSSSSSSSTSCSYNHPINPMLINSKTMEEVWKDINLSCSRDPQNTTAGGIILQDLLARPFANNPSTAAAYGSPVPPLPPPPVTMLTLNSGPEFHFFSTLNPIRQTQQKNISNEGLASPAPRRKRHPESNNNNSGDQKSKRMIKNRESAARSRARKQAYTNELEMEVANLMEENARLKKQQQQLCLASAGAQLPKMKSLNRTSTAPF
Sequence of UniProt A0A1E1F9A3 (A0A1E1F9A3 entry or part of it): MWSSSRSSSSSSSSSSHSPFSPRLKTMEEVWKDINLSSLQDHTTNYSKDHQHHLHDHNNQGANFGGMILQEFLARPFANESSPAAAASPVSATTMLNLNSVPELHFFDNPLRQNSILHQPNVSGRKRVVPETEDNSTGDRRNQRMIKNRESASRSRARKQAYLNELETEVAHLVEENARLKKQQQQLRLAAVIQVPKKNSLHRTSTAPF

“YN‐StFDL1a (from UniProt A0A1E1F9A2) T224A” showed a ratio to parent (YC‐StCEN) of 3.4.

YN‐StCEN R64K; P96L; F103A; R132K gave a ratio to parent (YC‐St14‐3‐3a) of 1.3, a ratio to parent (YC‐St14‐3‐3f) of 1.2 and a ratio to parent (YC‐StFDL1a) of 2.8. It also gave a ratio to parent (YC‐StFD) of 2.7.

For “StSP6A (tuberigen, FT orthologue of potato), 35S-driven GFP fusion (natural protein)”, the luciferase activity of the p6A::LUC reporter (2.64 kb StSP6A promoter) in N. benthamiana leaves co-expressing StSP6A and estradiol-induced StFDL1a, against the reporter alone [1] was 3 fold.
